The experiment addresses T1, HIV-1 p55gag precursor polyprotein (HIV-1, UniProt P04591 1-500).
T1 construct: In vitro translated control protein
The experiment in a line: coimmunoprecipitation of 35S-labeled in vitro translated proteins, SDS-PAGE.

The values below come from US20030143735A1 (University of Pennsylvania, published 2003).

B1: human Vpr Interacting Protein (hVIP), 35S-labeled, in vitro translated (other)
chain: MHARAAASVMDICRIRLDHAVSMSTFFFFLSSGMEVDAAVVPSVMACGVTGSVSVALHPLVILNISDHWIRMRSHQGRPVQVIGALIGKQEGRNIEVMNSFELLSHTVEEKIIIDKEYYYTKEEQFKQVFKELEFLGWYTTGGPPDPSDIHVHKQCCEIIESPLFLKLNPMTKHTDLPVSVFESVIDIINGEATMLFAELTYTLATEEAERIGVDHVARMTATGSGENSTVAEHLIAQHSAIKMLHSRVKLILEYVKASEAGEVPFNHEILREAYALCHCLPVLSTDKFKTDFYDQCNDVGLMAYLGTITKTCNTMNQFVNKFNVLYDRQGIGRRMRGLFF
modifications: 35S radiolabel
notes: In vitro translated hVIP of the coimmunoprecipitation assay; Anti-Express antibody was among the antibodies used, so it may have
For the molecule B1, the binding result is “no binding”.
